Measurements taken from article PMC10916747, “Safety, biodistribution and radiation dosimetry of the Arg-Gly-Asp peptide ^99mTc-maraciclatide in healthy volunteers” (Nuclear Medicine Communications, 2024).
Numbered stars: 1 amine (or outer) side, 2 acyl side, 3 side chain; on linkers, the order of the positions; unused ones are H or OH. Bridge positions count the residues as written; N and C are the ends. Side chains are listed from the residue outwards. Peptide text beside a SMILES is read from it. * marks the point of attachment. X1 = C/C(=N\O)C(C)(C)NCCC(CCNC(C)(C)/C(C)=N/O)CCN*; Glutaryl = O=C(CCCC(=O)[*:2])[*:1]; X2 = NC(=O)COCC(=O)NCCOCCOCCOCCN*

Assays:
healthy volunteers [1] = test system: healthy volunteers; set-up: method as in PMID 17353156; details: human urine, highest dose group (150 micrograms maraciclatide), reversed-phase LC ion-trap MS; cited from earlier work
clinical = assay: clinical; set-up: species or system human; details: human, in vivo, iv
Experimental: (§1) To calculate ^99mTc-maraciclatide ex-vivo activity, blood, plasma, urine, and faeces were collected at various time points after administration. Blood and plasma samples were collected at 10 min, 30 min, 1 h, 2 h, 4 h, 8 h, 24 h, 48 h, 72 h, and 7 days post-administration. Concentrations of maraciclatide in plasma were assayed using the LC-MS method (LOQ was 0.5 ng/ml). Urine was also collected at the same time points (if possible) up to 24 h post-administration. Faecal samples were collected as voided for up to 24 h post-administration. Assayed samples for ^99mTc-maraciclatide content were then measured using a gamma counter.
(§2) Concentrations of maraciclatide in plasma were assayed using the LC-MS method (LOQ was 0.5 ng/ml). The mean apparent terminal elimination half-life was approximately 1 h. Overall, systemic clearance was approximately 6.7 ml/min/kg, whilst the mean apparent volume of distribution was approximately 520 ml/kg. The majority of ^99mTc activity was excreted through the urinary pathway and GI tract, 55% and 16%, respectively.

healthy volunteers [2] = assay: clinical; set-up: species or system human; details: in vivo, iv
Experimental: as §1, §2

healthy volunteers [3] = assay: Phase 1 safety assessment (adverse events, vital signs, ECG, laboratory parameters)
Experimental: In 2003, a phase 1, placebo-controlled, observer-blinded, randomised, single ascending-dose study was performed. The study aimed to assess the safety of three intravenous levels of maraciclatide and the biodistribution and radiation dosimetry of ^99mTc-maraciclatide in healthy volunteers, assessing the potential of ^99mTc-maraciclatide as a radiopharmaceutical for diagnostic imaging.
Safety data on vital signs (heart rate, blood pressure, temperature, and oxygen saturation), electrocardiograms (ECG), laboratory parameters and physical examinations (general appearance, lung, abdominal, cardiovascular, and neurological exam by a qualified clinician) were measured prior to administration, and at multiple time points up to 7 days following administration. Based on clinical assessment, new abnormal or worsening clinical findings were defined as a change from the participant’s normal baseline to abnormal. All abnormal changes were recorded as adverse events (AEs).
Safety assessments were performed by an observer blinded to the administration of the placebo and ^99mTc-maraciclatide. A thorough review of safety data was performed before the decision was made to escalate to the higher dose in participants.

integrin receptor αvβ3 = details: background statement, no reference printed; cited from earlier work

C/C(=N\O)C(C)(C)NCCC(CCNC(=O)CCCC(=O)NCCCC[C@@H]1NC(=O)CSC[C@@H](C(=O)NCCOCCOCCOCCNC(=O)COCC(N)=O)NC(=O)[C@H](Cc2ccccc2)NC(=O)[C@@H]2CSSC[C@H](NC1=O)C(=O)N[C@@H](CCCNC(=N)N)C(=O)NCC(=O)N[C@@H](CC(=O)O)C(=O)N2)CCNC(C)(C)/C(C)=N/O (stereo partly shown) [Maraciclatide] ({CH2CO}-K([Glutaryl-X1])CRGDCFC-X2; disulfide 2-6; thioether N-8; N-terminus and C-terminus assumed)
metabolites in urine (healthy volunteers [1]): no metabolites were detected
species observed in urine samples (in-vivo stability) (healthy volunteers [1]): Only intact maraciclatide was observed
Vd (clinical): ~0.52 L/kg
clearance (clinical): ~6.7 mL/min/kg
half-life (clinical): ~1 h
plasma concentration time course (healthy volunteers [2]): bi-exponential decline
Abdominal pain: Cause of AE (healthy volunteers [3]; 15 μg maraciclatide (n = 8)): IMP
Blood phosphate decrease: No. with AEs (healthy volunteers [3]; 15 μg maraciclatide (n = 8)): 0
Cardiac disorder: No. of AEs (healthy volunteers [3]; 15 μg maraciclatide (n = 8)): 0
Cardiac disorder: No. with AEs (healthy volunteers [3]; 15 μg maraciclatide (n = 8)): 0
Contact dermatitis: Cause of AE (healthy volunteers [3]; 15 μg maraciclatide (n = 8)): Procedural complication
Contact dermatitis: No. of AEs (healthy volunteers [3]; 15 μg maraciclatide (n = 8)): 1
Contact dermatitis: No. with AEs (healthy volunteers [3]; 15 μg maraciclatide (n = 8)): 1
Crystal urine present: No. of AEs (healthy volunteers [3]; 15 μg maraciclatide (n = 8)): 0
Crystal urine present: No. with AEs (healthy volunteers [3]; 15 μg maraciclatide (n = 8)): 0
Diarrhoea: Cause of AE (healthy volunteers [3]; 15 μg maraciclatide (n = 8)): IMP
Diarrhoea: No. of AEs (healthy volunteers [3]; 15 μg maraciclatide (n = 8)): 1
Diarrhoea: No. with AEs (healthy volunteers [3]; 15 μg maraciclatide (n = 8)): 1
Dizziness: Cause of AE (healthy volunteers [3]; 15 μg maraciclatide (n = 8)): IMP
Dizziness: No. of AEs (healthy volunteers [3]; 15 μg maraciclatide (n = 8)): 1
Dizziness: No. with AEs (healthy volunteers [3]; 15 μg maraciclatide (n = 8)): 1
ECG PR shortened: No. of AEs (healthy volunteers [3]; 15 μg maraciclatide (n = 8)): 0
ECG PR shortened: No. with AEs (healthy volunteers [3]; 15 μg maraciclatide (n = 8)): 0
ECG QRS complex prolonged: No. of AEs (healthy volunteers [3]; 15 μg maraciclatide (n = 8)): 0
ECG QRS complex prolonged: No. with AEs (healthy volunteers [3]; 15 μg maraciclatide (n = 8)): 0
Herpes simplex virus: No. with AEs (healthy volunteers [3]; 15 μg maraciclatide (n = 8)): 0
Hyperkalaemia: No. of AEs (healthy volunteers [3]; 15 μg maraciclatide (n = 8)): 0
Hyperkalaemia: No. with AEs (healthy volunteers [3]; 15 μg maraciclatide (n = 8)): 0
Hypoaesthesia: Cause of AE (healthy volunteers [3]; 15 μg maraciclatide (n = 8)): IMP
Hypoaesthesia: No. of AEs (healthy volunteers [3]; 15 μg maraciclatide (n = 8)): 1
Hypoaesthesia: No. with AEs (healthy volunteers [3]; 15 μg maraciclatide (n = 8)): 1
Infection: No. of AEs (healthy volunteers [3]; 15 μg maraciclatide (n = 8)): 1
Infection: No. with AEs (healthy volunteers [3]; 15 μg maraciclatide (n = 8)): 1
Blood phosphate decrease: No. with AEs (healthy volunteers [3]; 75 μg maraciclatide (n = 8)): 1
Cardiac disorder: No. of AEs (healthy volunteers [3]; 75 μg maraciclatide (n = 8)): 1
Cardiac disorder: No. with AEs (healthy volunteers [3]; 75 μg maraciclatide (n = 8)): 1
Crystal urine present: No. of AEs (healthy volunteers [3]; 75 μg maraciclatide (n = 8)): 0
Crystal urine present: No. with AEs (healthy volunteers [3]; 75 μg maraciclatide (n = 8)): 0
Dizziness: No. of AEs (healthy volunteers [3]; 75 μg maraciclatide (n = 8)): 0
Dizziness: No. with AEs (healthy volunteers [3]; 75 μg maraciclatide (n = 8)): 0
ECG PR shortened: No. of AEs (healthy volunteers [3]; 75 μg maraciclatide (n = 8)): 0
ECG PR shortened: No. with AEs (healthy volunteers [3]; 75 μg maraciclatide (n = 8)): 0
ECG QRS complex prolonged: Cause of AE (healthy volunteers [3]; 75 μg maraciclatide (n = 8)): Unrelated medical condition
ECG QRS complex prolonged: No. of AEs (healthy volunteers [3]; 75 μg maraciclatide (n = 8)): 1
ECG QRS complex prolonged: No. with AEs (healthy volunteers [3]; 75 μg maraciclatide (n = 8)): 1
Herpes simplex virus: No. with AEs (healthy volunteers [3]; 75 μg maraciclatide (n = 8)): 0
Hyperkalaemia: No. of AEs (healthy volunteers [3]; 75 μg maraciclatide (n = 8)): 0
Hyperkalaemia: No. with AEs (healthy volunteers [3]; 75 μg maraciclatide (n = 8)): 0
Hypoaesthesia: No. of AEs (healthy volunteers [3]; 75 μg maraciclatide (n = 8)): 0
Hypoaesthesia: No. with AEs (healthy volunteers [3]; 75 μg maraciclatide (n = 8)): 0
Hyporeflexia: Cause of AE (healthy volunteers [3]; 75 μg maraciclatide (n = 8)): Other
Hyporeflexia: No. of AEs (healthy volunteers [3]; 75 μg maraciclatide (n = 8)): 1
Hyporeflexia: No. with AEs (healthy volunteers [3]; 75 μg maraciclatide (n = 8)): 1
Infection: No. of AEs (healthy volunteers [3]; 75 μg maraciclatide (n = 8)): 0
Infection: No. with AEs (healthy volunteers [3]; 75 μg maraciclatide (n = 8)): 0
Blood phosphate decrease: No. with AEs (healthy volunteers [3]; 150 μg maraciclatide (n = 8)): 0
Cardiac disorder: No. of AEs (healthy volunteers [3]; 150 μg maraciclatide (n = 8)): 0
Cardiac disorder: No. with AEs (healthy volunteers [3]; 150 μg maraciclatide (n = 8)): 0
Crystal urine present: Cause of AEs (healthy volunteers [3]; 150 μg maraciclatide (n = 8)): IMP
Crystal urine present: No. of AEs (healthy volunteers [3]; 150 μg maraciclatide (n = 8)): 1
Crystal urine present: No. with AEs (healthy volunteers [3]; 150 μg maraciclatide (n = 8)): 1
Diarrhoea: No. of AEs (healthy volunteers [3]; 150 μg maraciclatide (n = 8)): 0
Diarrhoea: No. with AEs (healthy volunteers [3]; 150 μg maraciclatide (n = 8)): 0
Dizziness: No. of AEs (healthy volunteers [3]; 150 μg maraciclatide (n = 8)): 0
Dizziness: No. with AEs (healthy volunteers [3]; 150 μg maraciclatide (n = 8)): 0
ECG PR shortened: No. of AEs (healthy volunteers [3]; 150 μg maraciclatide (n = 8)): 0
ECG PR shortened: No. with AEs (healthy volunteers [3]; 150 μg maraciclatide (n = 8)): 0
ECG QRS complex prolonged: No. of AEs (healthy volunteers [3]; 150 μg maraciclatide (n = 8)): 0
ECG QRS complex prolonged: No. with AEs (healthy volunteers [3]; 150 μg maraciclatide (n = 8)): 0
Herpes simplex virus: No. with AEs (healthy volunteers [3]; 150 μg maraciclatide (n = 8)): 1
Hyperkalaemia: Cause of AEs (healthy volunteers [3]; 150 μg maraciclatide (n = 8)): Procedural complication
Hyperkalaemia: No. of AEs (healthy volunteers [3]; 150 μg maraciclatide (n = 8)): 1
Hyperkalaemia: No. with AEs (healthy volunteers [3]; 150 μg maraciclatide (n = 8)): 1
Hypoaesthesia: No. of AEs (healthy volunteers [3]; 150 μg maraciclatide (n = 8)): 0
Hypoaesthesia: No. with AEs (healthy volunteers [3]; 150 μg maraciclatide (n = 8)): 0
Hyporeflexia: No. of AEs (healthy volunteers [3]; 150 μg maraciclatide (n = 8)): 0
Hyporeflexia: No. with AEs (healthy volunteers [3]; 150 μg maraciclatide (n = 8)): 0
Infection: No. of AEs (healthy volunteers [3]; 150 μg maraciclatide (n = 8)): 1
Infection: No. with AEs (healthy volunteers [3]; 150 μg maraciclatide (n = 8)): 1
AEs deemed related to maraciclatide (number) (healthy volunteers [3]; in vivo): 7
AEs deemed related to maraciclatide (percent) (healthy volunteers [3]; in vivo): 23%
affinity to αvβ3 (integrin receptor αvβ3): nanomolar affinity
